According to paper PMC7003067:

B1: GLT8D1 (Homo sapiens) (protein)
chain: MSFRKVNIIILVLAVALFLLVLHHNFLSLSSLLRNEVTDSGIVGPQPIDFVPNALRHAVDGRQEEIPVVIAASEDRLGGAIAAINSIQHNTRSNVIFYIVTLNNTADHLRSWLNSDSLKSIRYKIVNFDPKLLEGKVKEDPDQGESMKPLTFARFYLPILVPSAKKAIYMDDDVIVQGDILALYNTALKPGHAAAFSEDCDSASTKVVIRGAGNQYNYIGYLDYKKERIRKLSMKASTCSFNPGVFVANLTEWKRQNITNQLEKWMKLNVEEGLYSRTLAGSITTPPLLIVFYQQHSTIDPMWNVRHLGSSAGKRYSPQFVKAAKLLHWNGHLKPWGRTASYTDVWEKWYIPDPTGKFNLIRRYTEISNIK
B2: GLT8D1 (Homo sapiens; G78W) (protein)
chain: MSFRKVNIIILVLAVALFLLVLHHNFLSLSSLLRNEVTDSGIVGPQPIDFVPNALRHAVDGRQEEIPVVIAASEDRLWGAIAAINSIQHNTRSNVIFYIVTLNNTADHLRSWLNSDSLKSIRYKIVNFDPKLLEGKVKEDPDQGESMKPLTFARFYLPILVPSAKKAIYMDDDVIVQGDILALYNTALKPGHAAAFSEDCDSASTKVVIRGAGNQYNYIGYLDYKKERIRKLSMKASTCSFNPGVFVANLTEWKRQNITNQLEKWMKLNVEEGLYSRTLAGSITTPPLLIVFYQQHSTIDPMWNVRHLGSSAGKRYSPQFVKAAKLLHWNGHLKPWGRTASYTDVWEKWYIPDPTGKFNLIRRYTEISNIK
B3: GLT8D1 (Homo sapiens; R92C) (protein)
chain: MSFRKVNIIILVLAVALFLLVLHHNFLSLSSLLRNEVTDSGIVGPQPIDFVPNALRHAVDGRQEEIPVVIAASEDRLGGAIAAINSIQHNTCSNVIFYIVTLNNTADHLRSWLNSDSLKSIRYKIVNFDPKLLEGKVKEDPDQGESMKPLTFARFYLPILVPSAKKAIYMDDDVIVQGDILALYNTALKPGHAAAFSEDCDSASTKVVIRGAGNQYNYIGYLDYKKERIRKLSMKASTCSFNPGVFVANLTEWKRQNITNQLEKWMKLNVEEGLYSRTLAGSITTPPLLIVFYQQHSTIDPMWNVRHLGSSAGKRYSPQFVKAAKLLHWNGHLKPWGRTASYTDVWEKWYIPDPTGKFNLIRRYTEISNIK

These proteins were tested on O=c1ccn([C@@H]2O[C@H](COP(=O)(O)OP(=O)(O)O[C@H]3O[C@H](CO)[C@H](O)[C@H](O)[C@H]3O)[C@@H](O)[C@H]2O)c(=O)[nH]1 (assay: UDP-Glo glycosyltransferase assay). Conditions: no acceptor, 50 mM Tris pH 7.5, 5 mM MnCl2, 37 °C, 60 min.
Assay type: biochemical, Homo sapiens
B1 was tested, and the Km was 3500 µM.
In the case of B2, the Km is reported as 2300 µM.
Protein B3 has a Km of 2500 µM.
